First the molecules themselves.
T1: human IL6R (human, UniProt P08887 20-358, limits assumed)
T1 construct: Antigen of the Biacore experiments
T1 sequence (looked up): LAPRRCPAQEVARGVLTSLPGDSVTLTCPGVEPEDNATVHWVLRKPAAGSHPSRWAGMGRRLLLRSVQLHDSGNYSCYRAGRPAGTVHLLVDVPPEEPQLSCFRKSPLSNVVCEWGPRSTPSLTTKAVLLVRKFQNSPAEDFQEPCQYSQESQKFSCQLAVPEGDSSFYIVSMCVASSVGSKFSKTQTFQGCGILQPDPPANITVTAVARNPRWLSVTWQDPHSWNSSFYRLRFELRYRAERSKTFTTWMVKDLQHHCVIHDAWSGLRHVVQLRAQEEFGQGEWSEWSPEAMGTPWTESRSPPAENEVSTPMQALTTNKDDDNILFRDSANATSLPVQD

B1: IL6R65PMP10A11 (VHH)
VHH: EVQLVESGGGLVQPGGSLRLSCAASGSIFKVNAMGWYRQAPGKGRELVAGIISGGSTNYADSVKGRFTISRDNAKNTLYLQMNSLRPEDTAVYYCAFIASNSEYDLGRRFWGQGTLVTVSS
notes: CDR3 library clone
B2: IL6R65PMP11H4 (VHH)
VHH: EVQLVESGGGLVQPGGSLRLSCAASGSTFRLNVMAWYRQAPGKGRELVAAIITNGTTTYADSVKGRFTISRDNAKNTLYLQMNSLRPEDTAVYYCAFVTTNSDYDLGRDYWGQGTLVTVSS
B3: IL6R65PMP11G11 (VHH)
VHH: B2 VHH with S27T, R30K, L31I, N54S, T58S
B4: IL6R65PMP11C7 (VHH)
VHH: B2 VHH with S27T, T28I, R30K, L31V, V33I, N54S
B5: IL6R65PMP11D6 (VHH)
VHH: B2 VHH with S27T, R30K, L31I, T53S, N54G, T56S, T58P
B6: IL6R65PMP11D3 (VHH)
VHH: B2 VHH with T28I, R30K, A50G, I51V, N54G, T56N, T58S
B7: IL6R65PMP11E11 (VHH)
VHH: B2 VHH with S27T, R30K, L31I, E46K, T53N, T56N
B8: IL6R65PMP11D11 (VHH)
VHH: B2 VHH with R30K, L31I, V33I, A50G, I51V, N54G, T56N, T58N
B9: IL6R65PMP12E1 (VHH)
VHH: EVQLVESGGGLVQPGGSLRLSCAANGSVYKVNAMAWYRQAPGKGRELVAGIVTGGTSNYADSVKGRFTISRDNAKNTLYLQMNSLRPEDTAVYYCAFVTTNSDYDLGRDYWGQGTLVTVSS
B10: IL6R65PMP13F10 (VHH)
VHH: B9 VHH with N25S, Y29F, V31I, A35G, I51L, V52I, T53S, G54A, T56S, S57T
B11: IL6R65PMP11F1 (VHH)
VHH: B2 VHH with S17T, R30K, L31I, A50G, I51V, T56S
B12: IL6R65PMP11F3 (VHH)
VHH: B2 VHH with S27T, T28I, L31I, T53S, N54G, T56S
B13: IL6R65PMP11E5 (VHH)
VHH: B2 VHH with L31I, V33I, A50G, I51V, N54S, T56N
B14: IL6R65PMP13A11 (VHH)
VHH: B9 VHH with N25S, S27T, Y29F, I51V, V52I, T53S, G54A, T56S, S57A
B15: IL6R65PMP12C8 (VHH)
VHH: B9 VHH with N25S, S27T, Y29F, V31I, I51L, T53S, G54A, S57A
B16: IL6R65PMP11G10 (VHH)
VHH: B2 VHH with L31I, A50G
B17: IL6R65PMP13F5 (VHH)
VHH: B2 VHH with S27T, L31I, A50G, T56S, T58S
B18: IL6R65PMP11D12 (VHH)
VHH: B2 VHH with S27T, T28I, R30K, L31I, V33I, T53N, N54S, T56S, T58S
B19: IL6R65PMP12C7 (VHH)
VHH: B9 VHH with N25S, K30R, V31I, A35G, I51L, V52I, T53S, G54A, T56S, S57T
B20: IL6R65PMP11B4 (VHH)
VHH: B2 VHH with T28I, R30K, L31I, T53N, N54G, T58S
B21: IL6R65PMP11A12 (VHH)
VHH: B2 VHH with S27T, T28I, L31V, A50G, T56S, T58S
B22: IL6R65PMP13D3 (VHH)
VHH: B9 VHH with S27T, V28T, Y29F, A33V, I51V, V52I, S57T
B23: IL6R65PMP13A4 (VHH)
VHH: B2 VHH with S27T, N54S
B24: IL6R65PMP11E9 (VHH)
VHH: B2 VHH with S27T, R30K, L31I, N54G
B25: IL6R65PMP11D4 (VHH)
VHH: B2 VHH with S27T, R30K, L31I, V33I, A50G, I51V, T53N, N54S, T58N
B26: IL6R65PMP13F3 (VHH)
VHH: B2 VHH with S27T, R30K, L31I, N54G
B27: IL6R65PMP11H2 (VHH)
VHH: B2 VHH with T28I, R30K, L31I, T53N, N54G, T58S
B28: IL6R65PMP11H10 (VHH)
VHH: B2 VHH with S21T, S27T, R30K, L31V, I51V, T53N, N54G, T58S
B29: IL6R65PMP11F10 (VHH)
VHH: B2 VHH with S27T, R30K, V33I, I51V, T53N, N54G
B30: IL6R65PMP11E2 (VHH)
VHH: B2 VHH with S27T, R30K, L31V, V33I, N54G, T56S, T58S
B31: IL6R65PMP11G7 (VHH)
VHH: B2 VHH with S27T, T28I, R30K, N54G
B32: IL6R65PMP13D2 (VHH)
VHH: B2 VHH with S27T, R30K, L31V, T53N, N54D, T56S
B33: IL6R65PMP13B2 (VHH)
VHH: B2 VHH with S27T, R30K, L31V, V33I, T56S
B34: IL6R65PMP11F12 (VHH)
VHH: B2 VHH with S27T, L31V, T53S, N54G, T56S
B35: IL6R65PMP13A2 (VHH)
VHH: B2 VHH with S27T, T28I, L31V, N54D
B36: IL6R65PMP11C4 (VHH)
VHH: B2 VHH with S27T, T28I, R30K, L31I, A50G, T56S
B37: IL6R65PMP13B3 (VHH)
VHH: B2 VHH with R19H, S27T, T28I, R30K, L31I, N54D, T56S
B38: IL6R65PMP11E4 (VHH)
VHH: B2 VHH with S21T, S27T, T28I, R30K, L31V, N54G, T56S, T58S

Changes are numbered by the printed parent chain.

For this experiment, the target named is T1, human IL6R. Kind of experiment: SPR (Biacore), periplasmic extract. The procedure: Selection outputs were analyzed by picking individual colonies and growing them overnight in 1 ml 2×YT (Yeast Tryptone) medium+100 ug/ml Carbenicillin at 37 C. Nanobody containing periplasmic extracts were prepared, diluted 1/10 in PBS and subsequently tested for antigen binding in ELISA. Clones with the highest ELISA signals were sequenced and analyzed on Biacore. […] The off-rate of the best clone from the CDR3 library was 7×10e-4 s-1.
In turn, B1 displayed an off-rate (koff) of 0.001 s⁻¹.

B2 yielded an off-rate constant (koff) of 0.0008 s⁻¹.

In turn, B3 registered an off-rate constant (koff) of 0.0005 s⁻¹.

Consider B4, for which the dissociation rate constant (koff) is 0.00085 s⁻¹.

B5: the koff was found to be 0.00068 s⁻¹.

Consider B6, for which the koff is 0.00031 s⁻¹.

For the molecule B7, the koff came to 0.00049 s⁻¹.

B8: the koff was 0.00039 s⁻¹. The koff values of the last two molecules are within 1.5-fold of each other.

With B9, the koff is 0.00026 s⁻¹.

B10 had a dissociation rate constant (koff) of 0.0011 s⁻¹.

On to B11, for which the koff is 0.00037 s⁻¹.

The molecule B12 gave a koff of 0.00048 s⁻¹.

Turning to B13, the koff turned out to be 0.00048 s⁻¹.

Regarding B14, the koff was found to be 0.00083 s⁻¹.

In the case of B15, the koff is 0.00066 s⁻¹. This koff and that of the molecule before are within 1.5-fold of each other.

As for B16, the koff was determined as 0.00021 s⁻¹.

B17 yielded a koff of 0.00037 s⁻¹. This koff lies about 1.8-fold higher than the previous one.

As for B18, the koff came out at 0.00058 s⁻¹. Compared with the last molecule, the koff is about 1.6-fold higher.

Take B19: the off-rate constant (koff) came out at 0.00091 s⁻¹. Against the preceding molecule, the koff is about 1.6-fold higher.

B20 returned a koff of 0.00028 s⁻¹.

Molecule B21 showed a koff of 0.00012 s⁻¹. Against the preceding molecule, the koff is about 2.3-fold lower.

B22 displayed an off-rate (koff) of 0.00048 s⁻¹.

Consider B23, for which the koff stood at 0.00072 s⁻¹.

Turning to B24, the off-rate constant (koff) stood at 0.00035 s⁻¹.

Molecule B25 yielded an off-rate (koff) of 0.001 s⁻¹.

As to B26, the off-rate (koff) amounted to 0.00046 s⁻¹.

For the molecule B27, the dissociation rate constant (koff) was 0.0003 s⁻¹.

B28 showed a koff of 0.00043 s⁻¹. The koff values of the last two molecules are within 1.5-fold of each other.

B29: the off-rate (koff) was determined as 0.0013 s⁻¹.

Turning to B30, the dissociation rate constant (koff) was 0.00068 s⁻¹. Compared with the last molecule, the koff is about 1.9-fold lower.

In turn, B31 displayed an off-rate (koff) of 0.00036 s⁻¹.

Turning to B32, the koff is 0.0011 s⁻¹.

B33: the koff came to 0.0014 s⁻¹.

B34 came in with a koff of 0.00067 s⁻¹.

B35: the dissociation rate constant (koff) was 0.00061 s⁻¹.

As for B36, the koff is 0.00031 s⁻¹.

With B37, the koff was 0.00076 s⁻¹.

B38: the koff is 0.00023 s⁻¹.

The values above are taken from patent US20100292083A1 (Ablynx, published 2010).
